From US20150010932A1 (SALK INSTITUTE FOR BIOLOGICAL STUDIES, published 2015) come the findings set out here.

Changes are numbered by the printed parent chain.

The chains are these.
B1: nLuc-linker-HA-Mdm4_RING (other)
chain: MEDAKNIKKGPAPFYPLEDGTAGEQLHKAMKRYALVPGTIAFTDAHIEVDITYAEYFEMSVRLAEAMKRYGLNTNHRIVVCSENSLQFFMPVLGALFIGVAVAPANDIYNERELLNSMGISQPTVVFVSKKGLQKILNVQKKLPIIQKIIIMDSKTDYQGFQSMYTFVTSHLPPGFNEYDFVPESFDRDKTIALIMNSSGSTGLPKGVALPHRTACVRFSHARDPIFGNQIIPDTAILSVVPFHHGFGMFTTLGYLICGFRVVLMYRFEEELFLRSLQDYKIQSALLVPTLFSFFAKSTLIDKYDLSNLHEIASGGAPLSKEVGEAVAKRFHLPGIRQGYGLTETTSAILITPEGDDKPGAVGKVVPFFEAKVVDLDTGKTLGVNQRGELCVRGPMIMSGYVNNPEATNALIDKDGGGGSGGGQISYASRGYPYDVPDYAGSMEDCQNLLKPCSLCEKRPRDGNIIHGRTGHLVTCFHCARRLKKAGASCPICKKEIQLVIKVFIA
notes: range 427-490; Expressed from pLi283 and pLi285; also called nLuc-Mdm4_RING; Mdm4 RING domain
B2: nLuc-linker-HA (other)
chain: MEDAKNIKKGPAPFYPLEDGTAGEQLHKAMKRYALVPGTIAFTDAHIEVDITYAEYFEMSVRLAEAMKRYGLNTNHRIVVCSENSLQFFMPVLGALFIGVAVAPANDIYNERELLNSMGISQPTVVFVSKKGLQKILNVQKKLPIIQKIIIMDSKTDYQGFQSMYTFVTSHLPPGFNEYDFVPESFDRDKTIALIMNSSGSTGLPKGVALPHRTACVRFSHARDPIFGNQIIPDTAILSVVPFHHGFGMFTTLGYLICGFRVVLMYRFEEELFLRSLQDYKIQSALLVPTLFSFFAKSTLIDKYDLSNLHEIASGGAPLSKEVGEAVAKRFHLPGIRQGYGLTETTSAILITPEGDDKPGAVGKVVPFFEAKVVDLDTGKTLGVNQRGELCVRGPMIMSGYVNNPEATNALIDKDG
notes: Expressed from pLi635, no fusion partner; also called nLuc-HA; nLuc alone; not shown: linker-HA
B3: cLuc-linker-HA-Mdm2_RING (other)
chain: MSGYVNNPEATNALIDKDGWLHSGDIAYWDEDEHFFIVDRLKSLIKYKGYQVAPAELESILLQHPNIFDAGVAGLPDDDAGELPAAVVVLEHGKTMTEKEIVDYVASQVTTAKKLRGGVVFVDEVPKGLTGKLDARKIREILIKAKKGGKIAVGGGSGGGQISYASRGYPYDVPDYAGSSSLPLNAIEPCVICQGRPKNGCIVHGKTGHLMACFTCAKKLKKRNKPCPVCRQPIQMIVLTYFP
notes: range 428-491; Expressed from pLi283; also called cLuc-Mdm2_RING; Mdm2 RING domain
B4: cLuc-linker-HA-Mdm2_RING-C464A (other)
chain: B3 chain with C216A
notes: range 428-491; Expressed from pLi285; also called Mdm2_C464A
B5: cLuc-linker-FLAG-Mdm4-111 (other)
chain: MSGYVNNPEATNALIDKDGWLHSGDIAYWDEDEHFFIVDRLKSLIKYKGYQVAPAELESILLQHPNIFDAGVAGLPDDDAGELPAAVVVLEHGKTMTEKEIVDYVASQVTTAKKLRGGVVFVDEVPKGLTGKLDARKIREILIKAKKGGKIAVGGGSGGGQISYASRGDYKDDDDKSGTSFSTSAQCSTSDSACRISPGQINQVRPKLPLLKILHAAGAQGEMFTVKEVMHYLGQYIMVKQLYDQQEQHMVYCGGDLLGELLGRQSFSVKDPSPLYDMLRKNLVTLAT
notes: range 2-111; Expressed from pLi354 with nLuc-p53; also called cLuc-Mdm4
B6: cLuc-linker-FLAG-FANCL_WT (other)
chain: MSGYVNNPEATNALIDKDGWLHSGDIAYWDEDEHFFIVDRLKSLIKYKGYQVAPAELESILLQHPNIFDAGVAGLPDDDAGELPAAVVVLEHGKTMTEKEIVDYVASQVTTAKKLRGGVVFVDEVPKGLTGKLDARKIREILIKAKKGGKIAVGGGSGGGQISYASRGDYKDDDDKSGAVTEASLLRQCPLLLPQNRSKTVYEGFISAQGRDFHLRIVLPEDLQLKNARLLCSWQLRTILSGYHRIVQQRMQHSPDLMSFMMELKMLLEVALKNRQELYALPPPPQFYSSLIEEIGTLGWDKLVYADTCFSTIKLKAEDASGREHLITLKLKAKYPAESPDYFVDFPVPFCASWTPQSSLISIYSQFLAAIESLKAFWDVMDEIDEKTWVLEPEKPPRSATARRIALGNNVSINIEVDPRHPTMLPECFFLGADHVVKPLGIKLSRNIHLWDPENSVLQNLKDVLEIDFPARAILEKSDFTMDCGICYAYQLDGTIPDQVCDNSQCGQPFHQICLYEWLRGLLTSRQSFNIIFGECPYCSKPITLKMSGRKH
notes: mature; Expressed from pLi505; also called cLuc-FANCL
B7: cLuc-linker-FLAG-FANCL_C307A (other)
chain: B6 chain with C484A
notes: mature; Expressed from pLi506

Assay [1] addresses B3. Nature of the assay: BiLC in cell lysate with PPI lysis buffer PLB; reference is the Mdm4_RING / Mdm2_RING_C464A pair.
The target in assay [2] is T1, cLuc-linker-HA (Photinus pyralis (Common eastern …, UniProt P08659 398-547 = luciferase)).
T1 construct: Expressed from pLi635, no fusion partner; also called cLuc-HA; cLuc alone; not shown: linker-HA
Description: quantitative ReBiL assay in U2OS cells (FIG. 17D).

The target in assay [3] is B1. Nature of the assay: BiLC in U2OS cell lysates, three lysis buffers.
The target in assay [4] is B1. Nature of the assay: BiLC in cells and in cell lysate (FIGS. 16 and 12).
For assay [5], the target named is TAT-PMI. Nature of the assay: lysate BiLC (FIG. 13B); disruption of nLuc-p53 / cLuc-Mdm4.
Assay [6] concerns the target T2, nLuc-linker-HA-Ube2t (UniProt Q9NPD8 1-197, limits assumed).
T2 construct: Expressed from pLi505 and pLi506; also called nLuc-Ube2t; nLuc-Linker1-HA-Ube2t; not shown: linker-HA
Nature of the assay: ReBiL BiLC in living U2OS cells at 35° C.

For assay [7], the target named is T2, nLuc-linker-HA-Ube2t. Nature of the assay: ReBiL BiLC in living U2OS cells at 35° C (FIG. 23C).

T2 sequence (Q9NPD8 whole entry): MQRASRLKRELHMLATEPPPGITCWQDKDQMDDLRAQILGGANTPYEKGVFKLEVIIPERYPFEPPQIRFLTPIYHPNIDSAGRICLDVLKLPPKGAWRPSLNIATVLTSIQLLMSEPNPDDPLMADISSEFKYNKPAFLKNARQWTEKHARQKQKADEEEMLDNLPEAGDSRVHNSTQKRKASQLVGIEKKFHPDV

On to B1, for which the “BiLC signal (wild type) to noise (mutant) ratio” value in assay [1] was over 1000 fold.
As for B2, the binding result in assay [2] is “no binding”.
Take B3: the binding result in assay [3] is listed as “binds”.
As for B4, the binding result in assay [4] is recorded as “no binding”.
B5: the binding result in assay [5] is given as “binds”.
On to B6, for which, in assay [6], the binding result is listed as “binds”.
As for B7, the binding result in assay [7] is on record as “no binding”.
